Reference: the supplement of paper PMC11865577

Columns and labels:
Test in all cases: pull-down binding Z-score (relative to library population); higher = stronger binding
Details in all cases: RNA library: Library-2
[1] = system: TO-3-N3 (biotin conjugate)
Procedure, shortened: (§1)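 Binding is given as a Z-score against the library mean and standard deviation, calculated after removing the beads-only signal and averaging barcoded replicate probes without their highest and lowest values. Cy5- or Cy3-end-labelled RNA library (1 μg) was heat-folded in phosphate/NaCl/KCl buffer and incubated 60 min at 25 °C with streptavidin beads bearing 100 pmol of biotin-conjugated small molecule. After three washes, RNA eluted in hot SDS was hybridised to a DNA barcode microarray for 20 h at 55.5 °C.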

[2] = system: TO-3-N3-2 (biotin conjugate)
Procedure, shortened: as §1

TO-N3 (biotin conjugate) = system: TO-N3 (biotin conjugate)
Procedure, shortened: as §1

[3] = system: TO-N3-2 (biotin conjugate)
Procedure, shortened: as §1

## GUACAUGGGCACACUUUCUUAUGAACAAUUUAAGAAAGGUGUUCAGAUACCUUGUAC [SHAPE_invitro_SARS-CoV-2_Motif_110]
[1]
  pull-down binding Z-score: -0.767
[2]
  pull-down binding Z-score: -0.44
TO-N3 (biotin conjugate)
  pull-down binding Z-score: -1.06
[3]
  pull-down binding Z-score: -1.11

## GUACCAAAGGUGC [IAV_invivo_PB1_2_Motif_35+IAV_invivo_PB1_2_Motif_35]
[1]
  pull-down binding Z-score: -0.101
[2]
  pull-down binding Z-score: -0.26
TO-N3 (biotin conjugate)
  pull-down binding Z-score: -0.215
[3]
  pull-down binding Z-score: -0.382

## GUACCUCAAGCUGAUGUAGAAUGGAAGUUCUAUGAUGCACAGCCUUGUAGUGAC [SHAPE_invitro_SARS-CoV-2_Motif_348]
[1]
  pull-down binding Z-score: -0.418
[2]
  pull-down binding Z-score: -0.203
TO-N3 (biotin conjugate)
  pull-down binding Z-score: -0.178
[3]
  pull-down binding Z-score: 0.735

## GUACGAUCGAGUGUAC [DMSMaPseq_invitro_SARS-CoV-2_Motif_538]
[1]
  pull-down binding Z-score: 0.143
[2]
  pull-down binding Z-score: -0.222
TO-N3 (biotin conjugate)
  pull-down binding Z-score: 0.105
[3]
  pull-down binding Z-score: 0.0595

## GUACUUAAUGAGAAGUGC [SHAPE_invivo_SARS-CoV-2_Motif_56]
[1]
  pull-down binding Z-score: -0.216
[2]
  pull-down binding Z-score: -0.138
TO-N3 (biotin conjugate)
  pull-down binding Z-score: -0.461
[3]
  pull-down binding Z-score: -0.836

## GUACUUGGUAGUUUAGCUGCCACAGUAC
[1]
  pull-down binding Z-score: -0.525
[2]
  pull-down binding Z-score: -0.291
TO-N3 (biotin conjugate)
  pull-down binding Z-score: -0.688
[3]
  pull-down binding Z-score: -0.818

## GUAGACAAUUCUAGUCUUAC [SHAPE_invitro_SARS-CoV-2_Motif_131]
[1]
  pull-down binding Z-score: 0.702
[2]
  pull-down binding Z-score: -0.243
TO-N3 (biotin conjugate)
  pull-down binding Z-score: 0.441
[3]
  pull-down binding Z-score: -0.316

## GUAGAGGAGGCAAAGACAGUGCUUAAAAAGUGUAAAAGUGCCUUUUAC
[1]
  pull-down binding Z-score: -0.449
[2]
  pull-down binding Z-score: 0.448
TO-N3 (biotin conjugate)
  pull-down binding Z-score: -0.193
[3]
  pull-down binding Z-score: 0.576

## GUAUCUGAAUUAC
[1]
  pull-down binding Z-score: 0.0447
[2]
  pull-down binding Z-score: -0.196
TO-N3 (biotin conjugate)
  pull-down binding Z-score: -0.136
[3]
  pull-down binding Z-score: -0.281

## GUAUGAGCAGUAUAU [DMSMaPseq_invitro_SARS-CoV-2_Motif_451]
[1]
  pull-down binding Z-score: -0.638
[2]
  pull-down binding Z-score: -0.295
TO-N3 (biotin conjugate)
  pull-down binding Z-score: -0.709
[3]
  pull-down binding Z-score: -0.416

## GUCAAAGUGAC [SHAPE_invivo_SARS-CoV-2_Motif_385]
[1]
  pull-down binding Z-score: -0.196
[2]
  pull-down binding Z-score: -0.543
TO-N3 (biotin conjugate)
  pull-down binding Z-score: -0.434
[3]
  pull-down binding Z-score: -0.851

## GUCAAAGUGACUAUUGAC [SHAPE_invitro_SARS-CoV-2_Motif_373]
[1]
  pull-down binding Z-score: -0.385
[2]
  pull-down binding Z-score: -0.444
TO-N3 (biotin conjugate)
  pull-down binding Z-score: -0.53
[3]
  pull-down binding Z-score: -0.385

## GUCACACCUUCGGGAACGUGGUUGAC
[1]
  pull-down binding Z-score: -0.558
[2]
  pull-down binding Z-score: -0.338
TO-N3 (biotin conjugate)
  pull-down binding Z-score: -0.0943
[3]
  pull-down binding Z-score: 0.518

## GUCAGUGAAACACAGGGAACAGAGAAACUGAC [IAV_invivo_PB2_1_Motif_24+IAV_invivo_PB2_1_Motif_24]
[1]
  pull-down binding Z-score: -0.496
[2]
  pull-down binding Z-score: 0.282
TO-N3 (biotin conjugate)
  pull-down binding Z-score: -0.399
[3]
  pull-down binding Z-score: 0.355

## GUCCUAAAGUGAAGUAUUUAUACUUUAUUAAAGGAU [SHAPE_invivo_SARS-CoV-2_Motif_244]
[1]
  pull-down binding Z-score: -0.854
[2]
  pull-down binding Z-score: -0.605
TO-N3 (biotin conjugate)
  pull-down binding Z-score: -1.19
[3]
  pull-down binding Z-score: -1.51

## GUCCUAUUACGGAU
[1]
  pull-down binding Z-score: -0.9
[2]
  pull-down binding Z-score: -0.505
TO-N3 (biotin conjugate)
  pull-down binding Z-score: -1.37
[3]
  pull-down binding Z-score: -1.55

## GUCGCUACAGGAUUGGCAACUAUAAAUUAAACACAGACCAUUCCAGUAGCAGUGAC [SHAPE_invitro_SARS-CoV-2_Motif_494]
[1]
  pull-down binding Z-score: 0.00722
[2]
  pull-down binding Z-score: 0.215
TO-N3 (biotin conjugate)
  pull-down binding Z-score: 0.0101
[3]
  pull-down binding Z-score: -0.283

## GUCGUUGACAGGACACGAGUAACUCGUCUAUCUUCUGCAGGCUGC [SARS-CoV-2-Conserved-Structured-34_Interval-80-197_Motif_3]
[1]
  pull-down binding Z-score: -0.455
[2]
  pull-down binding Z-score: 0.148
TO-N3 (biotin conjugate)
  pull-down binding Z-score: 0.831
[3]
  pull-down binding Z-score: 2.14

## GUCUAAUCUCAAACCUUUUGAGAGAGAU
[1]
  pull-down binding Z-score: -0.801
[2]
  pull-down binding Z-score: -0.695
TO-N3 (biotin conjugate)
  pull-down binding Z-score: -1.19
[3]
  pull-down binding Z-score: -1.07

## GUCUAGCUGUCCACGAGUGCUUUGUUAAGCGUGUUGACUGGAC
[1]
  pull-down binding Z-score: -0.128
[2]
  pull-down binding Z-score: -0.348
TO-N3 (biotin conjugate)
  pull-down binding Z-score: -0.138
[3]
  pull-down binding Z-score: -0.24

## GUCUCCUACUAAAUUAAAUGAUCUCUGCUUUACUAAUGUCUAUGCAGAUUCAUUUGUAAUUAGAGGUGAU
[1]
  pull-down binding Z-score: -0.707
[2]
  pull-down binding Z-score: -0.285
TO-N3 (biotin conjugate)
  pull-down binding Z-score: -0.922
[3]
  pull-down binding Z-score: -0.628

## GUCUCGCACCCGCGAGAU [IAV_invivo_PB2_1_Motif_2+IAV_invivo_PB2_1_Motif_2]
[1]
  pull-down binding Z-score: 0.583
[2]
  pull-down binding Z-score: -0.362
TO-N3 (biotin conjugate)
  pull-down binding Z-score: 0.279
[3]
  pull-down binding Z-score: -0.742

## GUCUCUAUAGAAAUAGAGAU
[1]
  pull-down binding Z-score: 0.213
[2]
  pull-down binding Z-score: -0.397
TO-N3 (biotin conjugate)
  pull-down binding Z-score: -0.156
[3]
  pull-down binding Z-score: -1.36

## GUCUCUGAAGAAGUAGUGGAAAAUCCUACCAUACAGAAAGAC
[1]
  pull-down binding Z-score: -0.0809
[2]
  pull-down binding Z-score: 0.0814
TO-N3 (biotin conjugate)
  pull-down binding Z-score: 0.289
[3]
  pull-down binding Z-score: 0.831

## GUCUGAUAAUGGACCCCAAAAUCAGCGAAAUGCACCCCGCAUUACGUUUGGUGGACCCUCAGAU
[1]
  pull-down binding Z-score: -0.49
[2]
  pull-down binding Z-score: -0.237
TO-N3 (biotin conjugate)
  pull-down binding Z-score: -0.521
[3]
  pull-down binding Z-score: -0.0686

## GUCUGGGAUCAACGAGUCAGCGGAC [IAV_invivo_PB1_2_Motif_28+IAV_invivo_PB1_2_Motif_28]
[1]
  pull-down binding Z-score: -0.28
[2]
  pull-down binding Z-score: -0.51
TO-N3 (biotin conjugate)
  pull-down binding Z-score: -0.256
[3]
  pull-down binding Z-score: 0.401

## GUCUGGUAGUCGGAC [IAV_invivo_NA_6_Motif_1+IAV_invivo_NA_6_Motif_1]
[1]
  pull-down binding Z-score: -0.00665
[2]
  pull-down binding Z-score: -0.235
TO-N3 (biotin conjugate)
  pull-down binding Z-score: -0.173
[3]
  pull-down binding Z-score: -0.21

## GUCUUACACCGUGCGGCACAGGCACUAGUACUGAUGUCGUAUACAGGGCUUUUGAC [DMSMaPseq_invitro_SARS-CoV-2_Motif_242]
[1]
  pull-down binding Z-score: -0.0912
[2]
  pull-down binding Z-score: 0.0142
TO-N3 (biotin conjugate)
  pull-down binding Z-score: 0.173
[3]
  pull-down binding Z-score: 0.217

## GUCUUUCCAGGGGC [IAV_invivo_NP_5_Motif_23+IAV_invivo_NP_5_Motif_23]
[1]
  pull-down binding Z-score: -0.313
[2]
  pull-down binding Z-score: -0.414
TO-N3 (biotin conjugate)
  pull-down binding Z-score: -0.393
[3]
  pull-down binding Z-score: -0.0606
